Measurements taken from article PMC9688318, “Construction of a Versatile, Programmable RNA-Binding Protein Using Designer PPR Proteins and Its Application for Splicing Control in Mammalian Cells”.

Columns and labels:
PPR2.0 t23 [1] = molecular target: T1, PPR2.0 t23 (synthetic); test: 20 mM Tris-HCl pH 8.0, 150 mM NaCl, 0.5% NP-40, 1 mM DTT; details: tags: N-terminal NanoLuc, C-terminal His6, kept; label: biotin
T1 chain: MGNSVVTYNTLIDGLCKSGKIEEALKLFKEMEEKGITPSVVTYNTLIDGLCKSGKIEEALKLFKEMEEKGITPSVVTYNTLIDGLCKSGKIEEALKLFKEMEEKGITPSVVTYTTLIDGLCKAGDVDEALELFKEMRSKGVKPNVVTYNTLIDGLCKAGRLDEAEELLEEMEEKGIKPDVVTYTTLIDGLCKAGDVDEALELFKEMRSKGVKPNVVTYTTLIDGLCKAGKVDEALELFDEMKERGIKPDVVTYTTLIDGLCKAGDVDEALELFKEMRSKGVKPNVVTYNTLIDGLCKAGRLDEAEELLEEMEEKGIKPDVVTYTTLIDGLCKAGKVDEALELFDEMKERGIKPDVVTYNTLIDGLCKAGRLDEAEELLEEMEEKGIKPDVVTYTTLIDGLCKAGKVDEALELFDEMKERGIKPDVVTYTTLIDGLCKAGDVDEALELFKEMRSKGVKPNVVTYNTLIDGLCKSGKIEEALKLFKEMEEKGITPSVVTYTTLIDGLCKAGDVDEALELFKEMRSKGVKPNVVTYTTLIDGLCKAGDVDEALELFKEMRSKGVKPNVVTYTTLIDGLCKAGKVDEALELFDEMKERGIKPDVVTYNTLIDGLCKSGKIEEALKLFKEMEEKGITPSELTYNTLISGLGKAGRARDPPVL

PPR2.0 t23 [2] = molecular target: T1, PPR2.0 t23; test: EMSA; 20 mM Tris-HCl pH 8.0, 150 mM NaCl, 0.5% NP-40, 1 mM DTT, 1 mM EDTA; 20 nM RNA; details: tags: N-terminal SBP, C-terminal His6, kept; label: biotin
MS2 protein = MS2 protein (UniProt P03612 2-130); test: RBP-ELISA; purified and lysate, dose-dependent; EMSA: 20 mM Tris-HCl pH 8.0, 150 mM NaCl, 0.5% NP-40, 1 mM DTT, 1 mM EDTA, 0.2 pmol biotin-RNA in 10 uL, 6% PAGE in 0.5x TBE; temperature not stated; RBP-ELISA; details: protein: recombinant; tags: 6xHis; Nano-luc; chain copies: 2; label: 5'-biotin; hairpin
MS2 protein, sequence (P03612 2-130): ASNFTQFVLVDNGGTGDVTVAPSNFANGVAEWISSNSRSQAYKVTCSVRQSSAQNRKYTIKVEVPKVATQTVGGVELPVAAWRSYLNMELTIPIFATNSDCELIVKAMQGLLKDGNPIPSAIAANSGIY

PPR2.0 t24 = molecular target: T2, PPR2.0 t24 (synthetic); test: EMSA; 20 mM Tris-HCl pH 8.0, 150 mM NaCl, 0.5% NP-40, 1 mM DTT, 1 mM EDTA; 20 nM RNA; details: tags: N-terminal SBP, C-terminal His6, kept; label: biotin
T2 chain: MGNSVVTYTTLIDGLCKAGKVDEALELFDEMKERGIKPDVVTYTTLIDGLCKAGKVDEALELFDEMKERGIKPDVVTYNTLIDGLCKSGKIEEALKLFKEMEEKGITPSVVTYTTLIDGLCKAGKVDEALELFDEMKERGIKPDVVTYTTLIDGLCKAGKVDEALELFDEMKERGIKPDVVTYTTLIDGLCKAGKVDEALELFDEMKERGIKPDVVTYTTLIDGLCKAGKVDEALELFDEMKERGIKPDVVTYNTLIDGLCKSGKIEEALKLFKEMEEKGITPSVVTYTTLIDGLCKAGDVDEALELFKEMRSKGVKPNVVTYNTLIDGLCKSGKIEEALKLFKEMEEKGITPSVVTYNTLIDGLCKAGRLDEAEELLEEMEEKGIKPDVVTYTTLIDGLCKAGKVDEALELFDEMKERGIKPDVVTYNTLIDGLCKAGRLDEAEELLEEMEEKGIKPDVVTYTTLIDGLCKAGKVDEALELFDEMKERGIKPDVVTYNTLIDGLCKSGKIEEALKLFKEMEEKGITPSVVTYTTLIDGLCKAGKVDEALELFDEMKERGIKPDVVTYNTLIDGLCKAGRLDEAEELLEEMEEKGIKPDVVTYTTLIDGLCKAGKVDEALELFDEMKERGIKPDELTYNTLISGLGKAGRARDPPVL

PPR2.0 t2 [3] = molecular target: T3, PPR2.0 t2 (synthetic); test: 20 mM Tris-HCl pH 8.0, 150 mM NaCl, 0.5% NP-40, 1 mM DTT; details: tags: N-terminal NanoLuc, C-terminal His6, kept; label: biotin
T3 chain: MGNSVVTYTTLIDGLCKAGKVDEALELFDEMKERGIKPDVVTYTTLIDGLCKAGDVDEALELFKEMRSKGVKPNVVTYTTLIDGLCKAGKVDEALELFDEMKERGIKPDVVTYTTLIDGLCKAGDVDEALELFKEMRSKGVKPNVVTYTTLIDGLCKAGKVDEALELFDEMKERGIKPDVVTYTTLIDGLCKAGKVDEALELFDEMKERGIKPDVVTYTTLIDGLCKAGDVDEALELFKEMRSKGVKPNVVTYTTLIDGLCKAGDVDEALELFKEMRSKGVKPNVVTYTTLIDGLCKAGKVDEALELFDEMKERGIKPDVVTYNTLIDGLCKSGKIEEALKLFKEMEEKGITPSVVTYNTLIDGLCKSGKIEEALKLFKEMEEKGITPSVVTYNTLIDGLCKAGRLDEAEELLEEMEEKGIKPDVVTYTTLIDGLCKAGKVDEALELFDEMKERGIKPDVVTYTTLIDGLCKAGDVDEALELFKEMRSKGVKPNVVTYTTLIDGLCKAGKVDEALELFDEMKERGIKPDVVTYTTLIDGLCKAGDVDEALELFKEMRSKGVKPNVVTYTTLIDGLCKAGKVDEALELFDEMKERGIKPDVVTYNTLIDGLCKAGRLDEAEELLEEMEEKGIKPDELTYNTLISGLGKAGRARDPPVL

PPR2.0 t2 [4] = molecular target: T3, PPR2.0 t2; test: EMSA; 20 mM Tris-HCl pH 8.0, 150 mM NaCl, 0.5% NP-40, 1 mM DTT, 1 mM EDTA; 20 nM RNA; details: tags: N-terminal SBP, C-terminal His6, kept; label: biotin
PPR2.0 t3 [5] = molecular target: T4, PPR2.0 t3 (synthetic); test: 20 mM Tris-HCl pH 8.0, 150 mM NaCl, 0.5% NP-40, 1 mM DTT; details: tags: N-terminal NanoLuc, C-terminal His6, kept; label: biotin
T4 chain: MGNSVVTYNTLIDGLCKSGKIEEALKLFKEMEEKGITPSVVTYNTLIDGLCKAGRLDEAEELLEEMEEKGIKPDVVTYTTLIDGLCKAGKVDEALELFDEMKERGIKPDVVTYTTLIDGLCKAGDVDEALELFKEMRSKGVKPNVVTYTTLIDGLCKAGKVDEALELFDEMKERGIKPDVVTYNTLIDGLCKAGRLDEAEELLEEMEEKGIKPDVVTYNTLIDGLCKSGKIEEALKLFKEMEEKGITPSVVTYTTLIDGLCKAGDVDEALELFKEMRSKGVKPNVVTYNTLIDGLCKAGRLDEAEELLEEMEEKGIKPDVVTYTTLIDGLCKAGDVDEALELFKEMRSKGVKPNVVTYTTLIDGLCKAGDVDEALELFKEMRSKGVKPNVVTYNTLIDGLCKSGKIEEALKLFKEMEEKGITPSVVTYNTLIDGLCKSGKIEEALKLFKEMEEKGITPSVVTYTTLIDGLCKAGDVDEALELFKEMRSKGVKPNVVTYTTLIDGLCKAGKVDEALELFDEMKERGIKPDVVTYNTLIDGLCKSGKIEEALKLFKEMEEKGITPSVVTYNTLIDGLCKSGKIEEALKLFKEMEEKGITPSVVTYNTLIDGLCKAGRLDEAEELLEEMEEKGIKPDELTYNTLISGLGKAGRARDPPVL

PPR2.0 t3 [6] = molecular target: T4, PPR2.0 t3; test: EMSA; 20 mM Tris-HCl pH 8.0, 150 mM NaCl, 0.5% NP-40, 1 mM DTT, 1 mM EDTA; 20 nM RNA; details: tags: N-terminal SBP, C-terminal His6, kept; label: biotin
PPR2.0 t1 [7] = molecular target: T5, PPR2.0 t1 (synthetic); test: 20 mM Tris-HCl pH 8.0, 150 mM NaCl, 0.5% NP-40, 1 mM DTT; details: tags: N-terminal NanoLuc, C-terminal His6, kept; label: biotin
T5 chain: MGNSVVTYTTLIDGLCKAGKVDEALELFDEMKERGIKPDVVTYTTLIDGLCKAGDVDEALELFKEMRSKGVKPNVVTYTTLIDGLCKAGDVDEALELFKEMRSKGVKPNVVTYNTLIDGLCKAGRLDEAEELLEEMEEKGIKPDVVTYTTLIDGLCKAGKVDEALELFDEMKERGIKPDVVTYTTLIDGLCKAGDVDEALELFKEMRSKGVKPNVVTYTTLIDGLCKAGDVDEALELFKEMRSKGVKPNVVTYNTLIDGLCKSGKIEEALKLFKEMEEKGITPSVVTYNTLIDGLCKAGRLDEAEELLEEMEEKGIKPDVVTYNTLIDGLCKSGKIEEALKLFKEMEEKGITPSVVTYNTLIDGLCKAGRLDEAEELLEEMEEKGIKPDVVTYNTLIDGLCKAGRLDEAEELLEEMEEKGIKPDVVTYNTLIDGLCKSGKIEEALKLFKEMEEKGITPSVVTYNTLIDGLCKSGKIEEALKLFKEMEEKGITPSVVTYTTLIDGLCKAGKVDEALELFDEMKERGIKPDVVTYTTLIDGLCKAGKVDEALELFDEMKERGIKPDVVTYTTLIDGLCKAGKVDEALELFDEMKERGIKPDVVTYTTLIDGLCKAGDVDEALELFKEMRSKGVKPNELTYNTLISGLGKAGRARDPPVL

PPR2.0 t1 [8] = molecular target: T5, PPR2.0 t1; test: EMSA; 20 mM Tris-HCl pH 8.0, 150 mM NaCl, 0.5% NP-40, 1 mM DTT, 1 mM EDTA; 20 nM RNA; details: tags: N-terminal SBP, C-terminal His6, kept; label: biotin
PPR2.0 t19 [9] = molecular target: T6, PPR2.0 t19 (synthetic); test: 20 mM Tris-HCl pH 8.0, 150 mM NaCl, 0.5% NP-40, 1 mM DTT; details: tags: N-terminal NanoLuc, C-terminal His6, kept; label: biotin
T6 chain: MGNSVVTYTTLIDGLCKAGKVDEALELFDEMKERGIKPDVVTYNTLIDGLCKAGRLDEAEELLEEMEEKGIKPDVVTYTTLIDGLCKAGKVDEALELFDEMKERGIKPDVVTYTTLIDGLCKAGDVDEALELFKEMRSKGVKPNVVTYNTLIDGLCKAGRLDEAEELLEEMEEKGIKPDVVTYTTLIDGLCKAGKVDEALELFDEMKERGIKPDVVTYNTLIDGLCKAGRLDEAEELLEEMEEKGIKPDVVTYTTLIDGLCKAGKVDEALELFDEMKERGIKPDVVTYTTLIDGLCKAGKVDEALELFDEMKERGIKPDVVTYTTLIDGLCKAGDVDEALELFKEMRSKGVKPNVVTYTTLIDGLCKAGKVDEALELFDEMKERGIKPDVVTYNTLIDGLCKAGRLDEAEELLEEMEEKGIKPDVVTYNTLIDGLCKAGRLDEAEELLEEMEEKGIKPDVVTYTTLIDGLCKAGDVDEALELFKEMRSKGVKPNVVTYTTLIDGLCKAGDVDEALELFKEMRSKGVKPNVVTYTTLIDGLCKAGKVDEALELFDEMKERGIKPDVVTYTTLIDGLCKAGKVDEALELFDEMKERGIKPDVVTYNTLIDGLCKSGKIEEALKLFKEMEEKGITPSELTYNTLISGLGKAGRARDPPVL

PPR2.0 t19 [10] = molecular target: T6, PPR2.0 t19; test: EMSA; 20 mM Tris-HCl pH 8.0, 150 mM NaCl, 0.5% NP-40, 1 mM DTT, 1 mM EDTA; 20 nM RNA; details: tags: N-terminal SBP, C-terminal His6, kept; label: biotin

## GACAUGCCCCAUAGAUGUGACAAGCGACUG (ssRNA) [Probe_t23]
PPR2.0 t23 [1]
  binding signal: 3.27e+07 RBP-ELISA luminescence, CPS
PPR2.0 t23 [2]
  Kd: 10.4 nM

## AGAAAACAUGAGGAUCACCCAUGUCUGCAG (structured_RNA) [Probe_MS2]
MS2 protein
  binding result: binds

## GACAUGCGGCGGGGCACUGUGCGUGGACUG (ssRNA) [Probe_t24]
PPR2.0 t24
  Kd: 11 nM

## GACAUGCGAGAGGAAGCCUGAGAGUGACUG (ssRNA) [Probe_t2]
PPR2.0 t2 [3]
  binding signal: 5.68e+07 RBP-ELISA luminescence, CPS
PPR2.0 t2 [4]
  Kd: 4 nM

## GACAUGCCUGAGUCAUAACCAGCCUGACUG (ssRNA) [Probe_t3]
PPR2.0 t3 [5]
  binding signal: 3.35e+07 RBP-ELISA luminescence, CPS
PPR2.0 t3 [6]
  Kd: 59.2 nM

## GACAUGCGAAUGAACUCUUCCGGGAGACUG (ssRNA) [Probe_t1]
PPR2.0 t1 [7]
  binding signal: 6.64e+07 RBP-ELISA luminescence, CPS
PPR2.0 t1 [8]
  Kd: 3.45 nM

## GACAUGCGUGAUGUGGAGUUAAGGCGACUG (ssRNA) [Probe_t19]
PPR2.0 t19 [9]
  binding signal: 1.19e+07 RBP-ELISA luminescence, CPS
PPR2.0 t19 [10]
  Kd: 173 nM
